# T1: FcγRIIa H (human, UniProt P12318 34-217)
# T1 construct: extracellular domain; also called FcgRIIa H; FcγRIIa type H
# T1 sequence (looked up): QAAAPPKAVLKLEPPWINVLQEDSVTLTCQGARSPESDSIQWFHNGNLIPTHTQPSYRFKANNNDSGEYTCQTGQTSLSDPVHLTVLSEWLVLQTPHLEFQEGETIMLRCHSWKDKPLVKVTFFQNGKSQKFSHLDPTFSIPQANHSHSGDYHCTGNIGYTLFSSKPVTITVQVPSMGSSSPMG
# T2: FcγRIIb (human, UniProt P31994 43-217)
# T2 construct: extracellular domain; also called FcgRIIb; 2b
# T2 sequence (looked up): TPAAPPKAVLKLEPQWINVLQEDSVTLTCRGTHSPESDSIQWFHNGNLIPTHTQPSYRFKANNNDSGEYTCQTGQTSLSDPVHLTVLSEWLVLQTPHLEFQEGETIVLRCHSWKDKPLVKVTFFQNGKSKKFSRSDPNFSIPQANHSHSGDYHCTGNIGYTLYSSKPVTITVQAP
# Molecular target: T1, FcγRIIa H
# Experiment: SPR (Biacore), antibody captured, FcγR analyte; binding relative to GpH7-A5/GpH7-B3/GpL16-k0 = 100
row,He/Con_2aH,Binder
1,99.2 % of control,"GpH7-A5/GpH7-B3 variant H268_03V/GpL16-k0 (antibody, human IgG1, kappa, Heterodimerized antibody, alteration in one H chain only; also called He Ab H268V) heavy 1: not shown heavy 2: not shown light: DIVMTQSPLSLPVTPGEPASISCQASESLVHSNRNTYLHWYLQKPGQSPQLLIYKVSNRFSGVPDRFSGSGSGTDFTLKISRVEAEDVGVYYCSQNTHVPPTFGQGTKVEIERTVAAPSVFIFPPSDEQLKSGTASVVCLLNNFYPREAKVQWKVDNALQSGNSQESVTEQDSKDSTYSLSSTLTLSKADYEKHKVYACEVTHQGLSSPVTKSFNRGEC"
2,99.2 % of control,"GpH7-A5/GpH7-B3 variant H268_01G/GpL16-k0 (antibody, human IgG1, kappa, Heterodimerized antibody, alteration in one H chain only; also called He Ab H268G) heavy 1: not shown heavy 2: not shown light: DIVMTQSPLSLPVTPGEPASISCQASESLVHSNRNTYLHWYLQKPGQSPQLLIYKVSNRFSGVPDRFSGSGSGTDFTLKISRVEAEDVGVYYCSQNTHVPPTFGQGTKVEIERTVAAPSVFIFPPSDEQLKSGTASVVCLLNNFYPREAKVQWKVDNALQSGNSQESVTEQDSKDSTYSLSSTLTLSKADYEKHKVYACEVTHQGLSSPVTKSFNRGEC"

# Molecular target: T2, FcγRIIb
# Experiment: as above
row,He/Con_2b,Binder
1,24.6 % of control,"GpH7-A5/GpH7-B3 variant G237_05P/GpL16-k0 (antibody, human IgG1, kappa, Heterodimerized antibody, alteration in one H chain only; also called He Ab G237P) heavy 1: not shown heavy 2: not shown light: DIVMTQSPLSLPVTPGEPASISCQASESLVHSNRNTYLHWYLQKPGQSPQLLIYKVSNRFSGVPDRFSGSGSGTDFTLKISRVEAEDVGVYYCSQNTHVPPTFGQGTKVEIERTVAAPSVFIFPPSDEQLKSGTASVVCLLNNFYPREAKVQWKVDNALQSGNSQESVTEQDSKDSTYSLSSTLTLSKADYEKHKVYACEVTHQGLSSPVTKSFNRGEC"
2,114 % of control,"GpH7-A5/GpH7-B3 variant H268_03V/GpL16-k0 (antibody, human IgG1, kappa, Heterodimerized antibody, alteration in one H chain only; also called He Ab H268V) heavy 1: not shown heavy 2: not shown light: DIVMTQSPLSLPVTPGEPASISCQASESLVHSNRNTYLHWYLQKPGQSPQLLIYKVSNRFSGVPDRFSGSGSGTDFTLKISRVEAEDVGVYYCSQNTHVPPTFGQGTKVEIERTVAAPSVFIFPPSDEQLKSGTASVVCLLNNFYPREAKVQWKVDNALQSGNSQESVTEQDSKDSTYSLSSTLTLSKADYEKHKVYACEVTHQGLSSPVTKSFNRGEC"
3,144 % of control,"GpH7-A5/GpH7-B3 variant H268_01G/GpL16-k0 (antibody, human IgG1, kappa, Heterodimerized antibody, alteration in one H chain only; also called He Ab H268G) heavy 1: not shown heavy 2: not shown light: DIVMTQSPLSLPVTPGEPASISCQASESLVHSNRNTYLHWYLQKPGQSPQLLIYKVSNRFSGVPDRFSGSGSGTDFTLKISRVEAEDVGVYYCSQNTHVPPTFGQGTKVEIERTVAAPSVFIFPPSDEQLKSGTASVVCLLNNFYPREAKVQWKVDNALQSGNSQESVTEQDSKDSTYSLSSTLTLSKADYEKHKVYACEVTHQGLSSPVTKSFNRGEC"

# Molecular target: T3, FcγRIa (human, UniProt P12314 16-292)
# T3 construct: extracellular domain; soluble extracellular domain with C-terminal His tag, expressed in FreeStyle293 cells; also called FcgRI; FcgRIa
# T3 sequence (P12314 16-292): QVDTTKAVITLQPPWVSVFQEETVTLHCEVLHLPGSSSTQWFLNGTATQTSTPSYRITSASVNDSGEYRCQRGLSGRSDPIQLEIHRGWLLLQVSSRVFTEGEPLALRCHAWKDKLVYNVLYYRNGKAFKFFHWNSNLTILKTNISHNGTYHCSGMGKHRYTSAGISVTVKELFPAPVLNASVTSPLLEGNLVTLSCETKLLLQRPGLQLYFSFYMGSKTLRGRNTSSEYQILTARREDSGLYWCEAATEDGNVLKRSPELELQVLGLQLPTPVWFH
# Experiment: SPR (Biacore), captured antibody, FcγRIa analyte; relative to HeCon Ab GpH7-A5/GpH7-B3/GpL16-k0 = 100
row,Binder,He/Con_1a
1,"GpH7-A5/GpH7-B3 variant S298_16H/GpL16-k0 (antibody, human IgG1, kappa, heterodimerized IgG1, mutation in one H chain; also called He Ab) heavy 1: not shown heavy 2: not shown light: DIVMTQSPLSLPVTPGEPASISCQASESLVHSNRNTYLHWYLQKPGQSPQLLIYKVSNRFSGVPDRFSGSGSGTDFTLKISRVEAEDVGVYYCSQNTHVPPTFGQGTKVEIERTVAAPSVFIFPPSDEQLKSGTASVVCLLNNFYPREAKVQWKVDNALQSGNSQESVTEQDSKDSTYSLSSTLTLSKADYEKHKVYACEVTHQGLSSPVTKSFNRGEC",109 % of control
2,"GpH7-A5/GpH7-B3 variant S298_15Y/GpL16-k0 (antibody, human IgG1, kappa, heterodimerized IgG1, mutation in one H chain; also called He Ab) heavy 1: not shown heavy 2: not shown light: DIVMTQSPLSLPVTPGEPASISCQASESLVHSNRNTYLHWYLQKPGQSPQLLIYKVSNRFSGVPDRFSGSGSGTDFTLKISRVEAEDVGVYYCSQNTHVPPTFGQGTKVEIERTVAAPSVFIFPPSDEQLKSGTASVVCLLNNFYPREAKVQWKVDNALQSGNSQESVTEQDSKDSTYSLSSTLTLSKADYEKHKVYACEVTHQGLSSPVTKSFNRGEC",107 % of control

# The remaining lines, values ahead:
row,He/Con_1a,Binder
1,103 % of control,"GpH7-A5/GpH7-B3 variant S324_08L/GpL16-k0 (antibody, human IgG1, kappa, heterodimerized IgG1, mutation in one H chain; also called He Ab) heavy 1: not shown heavy 2: not shown light: DIVMTQSPLSLPVTPGEPASISCQASESLVHSNRNTYLHWYLQKPGQSPQLLIYKVSNRFSGVPDRFSGSGSGTDFTLKISRVEAEDVGVYYCSQNTHVPPTFGQGTKVEIERTVAAPSVFIFPPSDEQLKSGTASVVCLLNNFYPREAKVQWKVDNALQSGNSQESVTEQDSKDSTYSLSSTLTLSKADYEKHKVYACEVTHQGLSSPVTKSFNRGEC"
2,103 % of control,"GpH7-A5/GpH7-B3 variant S324_02A/GpL16-k0 (antibody, human IgG1, kappa, heterodimerized IgG1, mutation in one H chain; also called He Ab) heavy 1: not shown heavy 2: not shown light: DIVMTQSPLSLPVTPGEPASISCQASESLVHSNRNTYLHWYLQKPGQSPQLLIYKVSNRFSGVPDRFSGSGSGTDFTLKISRVEAEDVGVYYCSQNTHVPPTFGQGTKVEIERTVAAPSVFIFPPSDEQLKSGTASVVCLLNNFYPREAKVQWKVDNALQSGNSQESVTEQDSKDSTYSLSSTLTLSKADYEKHKVYACEVTHQGLSSPVTKSFNRGEC"
3,121 % of control,"GpH7-A5/GpH7-B3 variant S324_14T/GpL16-k0 (antibody, human IgG1, kappa, heterodimerized IgG1, mutation in one H chain; also called He Ab) heavy 1: not shown heavy 2: not shown light: DIVMTQSPLSLPVTPGEPASISCQASESLVHSNRNTYLHWYLQKPGQSPQLLIYKVSNRFSGVPDRFSGSGSGTDFTLKISRVEAEDVGVYYCSQNTHVPPTFGQGTKVEIERTVAAPSVFIFPPSDEQLKSGTASVVCLLNNFYPREAKVQWKVDNALQSGNSQESVTEQDSKDSTYSLSSTLTLSKADYEKHKVYACEVTHQGLSSPVTKSFNRGEC"
4,107 % of control,"GpH7-A5/GpH7-B3 variant S337_01G/GpL16-k0 (antibody, human IgG1, kappa, heterodimerized IgG1, mutation in one H chain; also called He Ab) heavy 1: not shown heavy 2: not shown light: DIVMTQSPLSLPVTPGEPASISCQASESLVHSNRNTYLHWYLQKPGQSPQLLIYKVSNRFSGVPDRFSGSGSGTDFTLKISRVEAEDVGVYYCSQNTHVPPTFGQGTKVEIERTVAAPSVFIFPPSDEQLKSGTASVVCLLNNFYPREAKVQWKVDNALQSGNSQESVTEQDSKDSTYSLSSTLTLSKADYEKHKVYACEVTHQGLSSPVTKSFNRGEC"
5,106 % of control,"GpH7-A5/GpH7-B3 variant S337_02A/GpL16-k0 (antibody, human IgG1, kappa, heterodimerized IgG1, mutation in one H chain; also called He Ab) heavy 1: not shown heavy 2: not shown light: DIVMTQSPLSLPVTPGEPASISCQASESLVHSNRNTYLHWYLQKPGQSPQLLIYKVSNRFSGVPDRFSGSGSGTDFTLKISRVEAEDVGVYYCSQNTHVPPTFGQGTKVEIERTVAAPSVFIFPPSDEQLKSGTASVVCLLNNFYPREAKVQWKVDNALQSGNSQESVTEQDSKDSTYSLSSTLTLSKADYEKHKVYACEVTHQGLSSPVTKSFNRGEC"

# Reference: patent US20150344570A1 (published 2015)
